Measured values taken from PMC8265659.

Legend:
[1] = biological target: T1, PorX-C-His6 (Porphyromonas gingivalis (33277?)) (UniProt B2RJJ3); assay: EMSA; conditions: EMSA: 10 mM Tris-HCl pH 7.5, 1 mM EDTA, 5 mM DTT, 10 mM NaCl, 1 mM MgCl2, 5% glycerol, room temperature, 30 min
T1 sequence: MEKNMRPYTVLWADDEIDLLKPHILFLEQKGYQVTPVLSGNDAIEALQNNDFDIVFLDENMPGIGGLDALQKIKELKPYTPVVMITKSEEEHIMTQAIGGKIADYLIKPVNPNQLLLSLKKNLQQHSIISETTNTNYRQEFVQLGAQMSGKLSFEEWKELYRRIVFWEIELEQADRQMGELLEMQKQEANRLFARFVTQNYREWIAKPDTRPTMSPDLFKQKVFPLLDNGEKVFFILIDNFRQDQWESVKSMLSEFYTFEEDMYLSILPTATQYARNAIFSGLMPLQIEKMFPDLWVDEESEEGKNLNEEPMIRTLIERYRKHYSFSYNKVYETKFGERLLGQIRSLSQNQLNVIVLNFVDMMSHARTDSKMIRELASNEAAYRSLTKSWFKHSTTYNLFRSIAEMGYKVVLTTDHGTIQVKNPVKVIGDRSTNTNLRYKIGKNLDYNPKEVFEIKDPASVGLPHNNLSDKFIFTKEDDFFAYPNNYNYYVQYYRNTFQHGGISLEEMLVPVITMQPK

[2] = biological target: T1, PorX-C-His6 (Porphyromonas gingivalis (33277?)); assay: DNase I footprinting; conditions: EMSA: 10 mM Tris-HCl pH 7.5, 1 mM EDTA, 5 mM DTT, 10 mM NaCl, 1 mM MgCl2, 5% glycerol, room temperature, 30 min

For “CCGAGTACGTTTACCCCGGCCCGATACAGTTCTTCGGCCCCGAACATGTATGCGATAGCCCCACGATGACACTCCGCTTGGAAAAGAACGATCGCTGACTCTTCCGCTGCATTAGTCGGGTTGATAAGCAGTTGCTTCTGTTTGTTTTGTCGAAAAAAATGTTTTTCTTTGCAATAAGTCTCATTTAAAAGAATCGCCTATCGACGCATATCTACCTTCTGAACAATAAATAAAGAGGATTCTCCTATGAGCAGTTTCCACAAGCTGACTGATGA (double strand) [T1 sigP promoter fragment (275 bp)]”, the binding [1] was “binds” and the binding [2] was “binds”.
